Biological target: T1, Snu13 (Saccharomyces cerevisiae) (UniProt P39990)
T1 sequence: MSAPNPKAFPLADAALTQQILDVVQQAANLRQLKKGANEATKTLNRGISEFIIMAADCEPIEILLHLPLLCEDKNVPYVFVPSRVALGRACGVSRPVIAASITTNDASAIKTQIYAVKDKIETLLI
Test: EMSA
Details: EMSA: annealed in 10 mM Tris-HCl, 100 mM NaCl, 1 mM EDTA, pH 7.5; 4 C, 10% native PAGE; 10 pmol Cy5-RNA (~2 uM) or 0.5 nmol unlabeled RNA. RNP: 20 mM Na …

snR41-kl1
Kd: > 10 µM
